Consider one substance from article PMC6021343.

This experiment has as its target Transferrin receptor 1 (human (endogenous in HeLa)) (UniProt P02786).

Chain of human H-ferritin loaded with about 350 iron ions per cage (P02794 whole entry): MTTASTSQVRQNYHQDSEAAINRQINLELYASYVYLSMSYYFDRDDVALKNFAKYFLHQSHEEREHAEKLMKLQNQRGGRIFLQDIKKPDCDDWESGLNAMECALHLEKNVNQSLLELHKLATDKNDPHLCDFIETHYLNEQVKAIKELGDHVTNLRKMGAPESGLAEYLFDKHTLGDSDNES
Chain of Transferrin receptor 1 (human (endogenous in HeLa)) (P02786 whole entry): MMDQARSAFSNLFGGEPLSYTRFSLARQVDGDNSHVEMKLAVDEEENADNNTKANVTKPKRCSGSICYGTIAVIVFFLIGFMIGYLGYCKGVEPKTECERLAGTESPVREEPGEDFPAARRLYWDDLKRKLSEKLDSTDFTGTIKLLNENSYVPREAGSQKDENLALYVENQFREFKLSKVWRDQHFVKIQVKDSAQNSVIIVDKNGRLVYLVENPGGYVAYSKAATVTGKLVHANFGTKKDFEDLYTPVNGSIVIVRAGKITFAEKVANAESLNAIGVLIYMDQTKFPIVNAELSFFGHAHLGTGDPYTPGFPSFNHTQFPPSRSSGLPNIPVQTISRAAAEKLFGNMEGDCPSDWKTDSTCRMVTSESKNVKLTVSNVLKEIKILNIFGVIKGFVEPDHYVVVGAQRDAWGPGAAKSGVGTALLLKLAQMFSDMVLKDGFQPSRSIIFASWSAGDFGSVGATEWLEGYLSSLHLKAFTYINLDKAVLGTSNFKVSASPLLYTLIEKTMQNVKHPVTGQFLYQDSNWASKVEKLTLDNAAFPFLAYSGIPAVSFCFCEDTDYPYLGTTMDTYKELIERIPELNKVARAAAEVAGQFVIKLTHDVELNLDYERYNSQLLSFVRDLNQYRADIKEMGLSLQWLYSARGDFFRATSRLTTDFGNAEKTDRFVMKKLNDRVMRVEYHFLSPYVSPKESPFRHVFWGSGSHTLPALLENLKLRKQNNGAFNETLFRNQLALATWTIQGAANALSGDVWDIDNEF

“human H-ferritin loaded with about 350 iron ions per cage (from UniProt P02794 1-183) (natural protein)” gave an iron uptake by HeLa cells (ICP-MS of lysates) after 5 h with H-350 1 μM: decrease of uptake when 20 μM Holo-transferrin was added to the medium of 50%.
